Substitutions are numbered along the chain they refer to.

The labels stand for the following.
T1: human FcγRIIaR extracellular domain with C-terminal His-tag (human, UniProt P12318 34-217)
T1 construct: Expressed in FreeStyle 293 cells and purified; also called human FcγRIIa (type R); FcgRIIaR; not shown: C-terminal His-tag
T1 chain: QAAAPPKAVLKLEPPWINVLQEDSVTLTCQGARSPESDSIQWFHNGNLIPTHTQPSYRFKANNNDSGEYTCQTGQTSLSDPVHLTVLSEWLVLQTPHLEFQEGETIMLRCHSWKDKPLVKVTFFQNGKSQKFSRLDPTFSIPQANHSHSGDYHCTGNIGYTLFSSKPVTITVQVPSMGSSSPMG

T2: cynomolgus monkey FcγRIIa1 extracellular domain with C-terminal His-tag (cynomolgus monkey)
T2 construct: Expressed in FreeStyle 293 cells and purified; also called cyno FcγRIIa1; cynoFcgRIIa1; not shown: C-terminal His-tag
T2 chain: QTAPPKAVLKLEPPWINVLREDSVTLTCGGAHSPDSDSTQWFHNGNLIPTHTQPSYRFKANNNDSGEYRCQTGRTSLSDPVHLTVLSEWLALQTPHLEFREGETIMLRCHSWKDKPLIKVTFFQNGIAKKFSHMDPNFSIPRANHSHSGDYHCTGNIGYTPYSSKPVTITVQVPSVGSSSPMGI

T3: cynomolgus monkey FcγRIIa3 extracellular domain with C-terminal His-tag (cynomolgus monkey)
T3 construct: Expressed in FreeStyle 293 cells and purified; also called cyno FcγRIIa3; cynoFcgRIIa3; not shown: C-terminal His-tag
T3 chain: T2 chain with P95T, T121A, A128S, H133P, D135N

T4: cynomolgus monkey FcγRIIIaS extracellular domain with C-terminal His-tag (cynomolgus monkey, UniProt Q8SPW2 21-206 at identity 1.00))
T4 construct: Expressed in FreeStyle 293 cells and purified; also called cyno FcγRIIIaS; cynoFcγRIIIaS; not shown: C-terminal His-tag
T4 chain: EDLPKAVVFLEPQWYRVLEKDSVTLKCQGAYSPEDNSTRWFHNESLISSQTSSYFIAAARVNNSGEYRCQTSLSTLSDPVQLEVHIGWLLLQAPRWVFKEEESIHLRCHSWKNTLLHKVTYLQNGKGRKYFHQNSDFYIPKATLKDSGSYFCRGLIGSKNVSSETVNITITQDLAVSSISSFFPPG

T5: human FcγRIIaH extracellular domain with C-terminal His-tag (human, UniProt P12318 34-217)
T5 construct: Expressed in FreeStyle 293 cells and purified; also called human FcγRIIa (type H); FcgRIIaH; not shown: C-terminal His-tag
T5 sequence: T1 chain with R134H

T6: human FcγRIIb extracellular domain with C-terminal His-tag (human, UniProt P31994 43-217)
T6 construct: Expressed in FreeStyle 293 cells and purified; also called humanFcgRIIb; not shown: C-terminal His-tag
T6 sequence: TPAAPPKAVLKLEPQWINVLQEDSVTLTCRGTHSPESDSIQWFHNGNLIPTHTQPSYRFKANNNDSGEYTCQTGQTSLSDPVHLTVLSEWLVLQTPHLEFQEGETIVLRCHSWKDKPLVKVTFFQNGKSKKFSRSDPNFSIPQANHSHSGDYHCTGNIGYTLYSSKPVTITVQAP

B1: M103205H795-MY172 / M103202L889-SK1 (antibody, human IgG1, kappa)
heavy: QVTLKESGPVLVKPTETLTLTCTVSGIDLSHDDISWVRQAPGKGLEWVGIISYAGSTYYASWAKGRLTISKDTSKNQVVLTMTNMDPVDTATYYCARGVPAYSHGGDLWGQGTLVTVSSASTKGPSVFPLAPSSKSTSGGTAALGCLVKDYFPEPVTVSWNSGALTSGVHTFPAVLQSSGLYSLSSVVTVPSSSLGTQTYICNVNHKPSNTKVDKKVEPKSCDKTHTCPPCPAPELLNGPSVFLFPPKPKDTLMISRTPEVTCVVVDVSEEDPEVKFNWYVDGVEVHNAKTKPREEQYNSTYRVVSVLTVLHQDWLNGKEYKCKVSNKALPAPIEKTISKAKGQPREPQVYTLPPSREEMTKNQVSLTCLVKGFYPSDIAVEWESNGQPENNYKTTPGVLDSDGSFFLYSKLTVDKSRWQQGNVFSCSVMHEALHNHYTQKSLSLSP
light: DIVMTQSPATLSLSPGERATLSCTSSQSVYHANWLSWFQQKPGQPPKLLIYWASTLAYGVPSRFSGSGSGTDFTLTISSLQPEDAATYYCAGGYGGGRYAFGQGTKVEIKRTVAAPSVFIFPPSDEQLKSGTASVVCLLNNFYPREAKVQWKVDNALQSGNSQESVTEQDSKDSTYSLSSTLTLSKADYEKHKVYACEVTHQGLSSPVTKSFNRGEC
notes: Position 396 variant derived from MY052, expressed with M103202L889-SK1 as light chain
B2: M103205H795-MY176 / M103202L889-SK1 (antibody, human IgG1, kappa)
heavy: B1 heavy with G398L
light: B1 light
notes: as for B1
B3: M103205H795-MY179 / M103202L889-SK1 (antibody, human IgG1, kappa)
heavy: B1 heavy with G398R
light: B1 light
notes: as for B1
B4: M103205H795-MY175 / M103202L889-SK1 (antibody, human IgG1, kappa)
heavy: B1 heavy with G398K
light: B1 light
notes: as for B1
B5: M103205H795-MY181 / M103202L889-SK1 (antibody, human IgG1, kappa)
heavy: B1 heavy with G398T
light: B1 light
notes: as for B1
B6: M103205H795-MY174 / M103202L889-SK1 (antibody, human IgG1, kappa)
heavy: B1 heavy with G398I
light: B1 light
notes: as for B1
B7: M103205H795-MY177 / M103202L889-SK1 (antibody, human IgG1, kappa)
heavy: B1 heavy with G398N
light: B1 light
notes: as for B1
B8: M103205H795-MY180 / M103202L889-SK1 (antibody, human IgG1, kappa)
heavy: B1 heavy with G398S
light: B1 light
notes: as for B1
B9: M103205H795-MY173 / M103202L889-SK1 (antibody, human IgG1, kappa)
heavy: B1 heavy with G398H
light: B1 light
notes: as for B1
B10: M103205H795-MY178 / M103202L889-SK1 (antibody, human IgG1, kappa)
heavy: B1 heavy with G398Q
light: B1 light
notes: as for B1

T7 sequence (P08637 17-208 F176V): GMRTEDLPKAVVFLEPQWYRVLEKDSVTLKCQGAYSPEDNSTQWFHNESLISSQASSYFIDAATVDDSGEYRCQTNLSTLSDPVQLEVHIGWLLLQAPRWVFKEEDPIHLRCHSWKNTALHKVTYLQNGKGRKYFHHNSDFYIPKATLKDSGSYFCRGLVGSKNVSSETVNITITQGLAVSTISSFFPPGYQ

In the first test the target is T1, human FcγRIIaR extracellular domain …. Put plainly: SPR (Biacore); KD of SG1 divided by KD of the variant for this FcgR.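 Note: relative to parent M103205H795-SG1 carrying the SG1 human heavy chain constant region.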
In the case of B1, the “KD fold (SG1 = 1)” value came out at 0.4 fold.

On to B2, for which the “KD fold (SG1 = 1)” value turned out to be 0.8 fold.

With B3, the “KD fold (SG1 = 1)” value is 0.5 fold.

Take B4: the “KD fold (SG1 = 1)” value is 0.7 fold.

Consider B5, for which the “KD fold (SG1 = 1)” value was found to be 0.4 fold.

As to B6, the “KD fold (SG1 = 1)” value was 0.8 fold.

With B7, the “KD fold (SG1 = 1)” value was found to be 0.6 fold.

In the case of B8, the “KD fold (SG1 = 1)” value stood at 0.4 fold.

Turning to B9, the “KD fold (SG1 = 1)” value worked out at 0.6 fold.

Regarding B10, the “KD fold (SG1 = 1)” value was found to be 0.5 fold.

A further test concerns the target T2, cynomolgus monkey FcγRIIa1 …. The experiment in a line: SPR (Biacore), antibody captured on chip, FcgR extracellular domain as analyte, 25 C. Here is the method: (§1) The kinetic analysis of interactions between these antibodies and FcγR was carried out using BIACORE® T200 or BIACORE® 4000 (GE Healthcare). HBS-EP+ (GE Healthcare) was used as the running buffer, and the measurement temperature was set to 25° C. A chip produced by immobilizing Protein A. Protein A/G or mouse anti-human IgG kappa light chain (BD Biosciences) onto a Series S Sensor Chip CM4 or CM5 (GE Healthcare) by the amine-coupling method was used. […] After the measurement, the antibody captured on the chip was washed off by allowing reaction with 10 mM glycine-HCl, pH1.5 and 25 mM NaOH so that the chip was regenerated and used repeatedly. The sensorgrams obtained as measurement results were analyzed by the 1:1 Langmuir binding model using the BIACORE® Evaluation Software to calculate the binding rate constant ka (L/mol/s) and dissociation rate constant kd (l/s), and the dissociation constant KD (mol/L) was calculated from these values. […] Regarding such interactions, KD values were calculated using the following 1:1 binding model described in BIACORE® T100 Software Handbook BR1006-48 Edition AE.
(§2) The resultant variants were expressed using M103202L889-SK1 as light chain and their affinity to human and cynoFcγRs were evaluated (Table 20).
B1 returned a Kd of 2700 nM.

In turn, B2 returned a dissociation constant (Kd) of 1300 nM.

B3 registered a Kd of 1900 nM.

Molecule B4 had a Kd of 1400 nM.

The molecule B5 came in with a Kd of 2300 nM.

Regarding B6, the affinity, expressed as Kd, was 1500 nM.

B7 displayed a Kd of 1900 nM.

On to B8, for which the affinity, expressed as Kd, was 2600 nM.

On to B9, for which the Kd is 1700 nM.

Molecule B10 displayed an equilibrium dissociation constant (Kd) of 2000 nM.

In another test the target is T3, cynomolgus monkey FcγRIIa3 …. The description is as above. The protocol:
as §1, §2
In turn, B1 showed a Kd of 11000 nM.

Molecule B2 yielded a Kd of 5000 nM.

B3 registered a Kd of 7900 nM.

On to B4, for which the Kd amounted to 7500 nM.

Turning to B5, the affinity, expressed as Kd, was 9200 nM.

Turning to B6, the dissociation constant Kd stood at 6400 nM.

Consider B7, for which the Kd worked out at 8100 nM.

In the case of B8, binding was characterised by a dissociation constant (Kd) of 12000 nM.

In turn, B9 came in with a Kd of 3000 nM.

For B10, binding was put at a Kd of 8700 nM.

The target in the next test is T4, cynomolgus monkey FcγRIIIaS …. Described as above. Here is the method:
as §1, §2
In turn, B1 registered a Kd of 3300 nM.

For B2, binding was put at a Kd of 2700 nM.

B3 came in with a Kd of 2700 nM.

Consider B4, for which the affinity, expressed as Kd, was 2600 nM.

In turn, B5 had a Kd of 4100 nM.

On to B6, for which binding was put at a Kd of 2500 nM.

B7 came in with a Kd of 2900 nM.

In turn, B8 came in with a Kd of 3100 nM.

In turn, B9 showed a Kd of 3100 nM.

The molecule B10 showed a Kd of 3000 nM.

The target of another test is T5, human FcγRIIaH extracellular domain …. Described as above. The protocol: as §1, §2
B1 came in with a Kd of 17000 nM.

Consider B2, for which the Kd was determined as 700 nM.

As to B3, the Kd is 11000 nM.

The molecule B4 gave a Kd of 860 nM.

B5 displayed a dissociation constant (Kd) of 1300 nM.

B6 came in with a dissociation constant Kd of 810 nM.

Regarding B7, the Kd came to 10000 nM.

The molecule B8 showed a Kd of 1700 nM.

B9 displayed a dissociation constant Kd of 1000 nM.

B10 gave a Kd of 1200 nM.

The target of another test is T1, human FcγRIIaR extracellular domain …. Described as above. The protocol: as §1, §2
For the molecule B1, the Kd was 3100 nM.

B2 registered a Kd of 1300 nM.

In turn, B3 gave a Kd of 2100 nM.

In turn, B4 registered a Kd of 1800 nM.

For the molecule B5, the Kd came to 2500 nM.

The molecule B6 gave a Kd of 1400 nM.

In turn, B7 had a Kd of 2800 nM.

Turning to B8, binding was characterised by a dissociation constant (Kd) of 3000 nM.

In turn, B9 showed a Kd of 1900 nM.

The molecule B10 came in with a Kd of 2300 nM.

In the next test the target is T6, human FcγRIIb extracellular domain with …. The test is described as above. The protocol: as §1, §2
With B1, the Kd is 1800 nM.

On to B2, for which the Kd is 7000 nM.

Consider B3, for which the Kd worked out at 12000 nM.

B4: the Kd amounted to 830 nM.

Molecule B5 registered a Kd of 14000 nM.

On to B6, for which the Kd came to 850 nM.

On to B7, for which the affinity, expressed as Kd, was 11000 nM.

Take B8: the Kd worked out at 19000 nM.

On to B9, for which binding was put at a Kd of 10000 nM.

B10 returned a Kd of 13000 nM.

The next test concerns the target T7, human FcγRIIIaV extracellular domain with C-terminal His-tag (human, UniProt P08637 17-208).
T7 construct: Expressed in FreeStyle 293 cells and purified; also called FcgRIIIaV; not shown: C-terminal His-tag
Described as above. The protocol: as §1, §2
In the case of B1, the Kd was 6500 nM.

Regarding B2, the Kd worked out at 6700 nM.

B3 yielded an equilibrium dissociation constant (Kd) of 5900 nM.

In turn, B4 gave a Kd of 7600 nM.

For the molecule B5, the affinity, expressed as Kd, was 7300 nM.

B6: the Kd came out at 6800 nM.

For the molecule B7, binding was put at a Kd of 6200 nM.

B8 yielded a Kd of 5900 nM.

B9 gave a Kd of 7000 nM.

On to B10, for which binding was put at a Kd of 4500 nM.

Source of the values: US20200317768A1 (published 2020).
